How the values were obtained:
[1] = biological target: T1, FcγRIIIa on NK cells of human PBMC (human, UniProt P08637 17-254); experiment: cell-based or functional assay
[2] = biological target: T2, recombinant human His-tagged FcγRIIIa (extracellular domain made at Centocor) (human, UniProt P08637 17-208); experiment: ELISA, His-tagged FcγRIIIa captured on HisGrab plate
T2 construct: extracellular domain; also called CD16a; recombinant, soluble, human FcγRIIIa
Protocol: (§1) FcγRIIIa (CD16a) ELISA—A human FcγRIIIa binding assay was done in ELISA format similar to the assay for FcγRI above. 50 μl of a 2 μg/ml solution of recombinant human His-tagged FcγRIIIa (extracellular domain made at Centocor) in ELISA buffer (PBS, 4 mg/ml BSA, 0.01% Tween-20) was added to each well of HisGrab 96 well plates (Pierce #15142) (Powers G., Notebook 10378, 19-23). The plate was incubated for 3 hours at room temp. The plates were blocked with 200 μl of Starting Block (Pierce #15142) for 30 min, and then washed 3× with 300 μl of wash buffer (PBS, 0.01% Tween-20) on a plate washer. Serial dilutions of the CNTO 860 test samples were made in Starting Block buffer and 50 μl per well of each titration were added in duplicate to the FcγRIIIa-coated plates. The plates were incubated for 1 hour. The plates were washed 3× with 300 μl of wash buffer on a plate washer. 50 μl of a 1:10,000 dilution of HRP-labeled goat F(ab′)2 anti-human IgG F(ab′)2 (Jackson Immunoresearch # 109-036-097) in Starting Block buffer was added to each well. The plates were incubated for 30 minutes. The plates were washed 3× with 300 μl of wash buffer on the plate washer. 50 μl per well TMB substrate (RDI #RDI-TMBSU-1L) was added to each well and developed for 3-5 minutes. The reaction was stopped by adding 100 μl 10.2 N sulfuric acid. The plates were read at OD450 on an Envision plate reader. Antibody concentration vs OD450 values were graphed for each CNTO 860 variant and the antibody concentration needed to achieve an OD450 reading of 0.14 established by interpolation within each data curve.

[3] = biological target: T3, recombinant polyhistidine tagged mouse FcγRI (R&D Systems) (mouse, UniProt P26151 25-297); experiment: ELISA, His-tagged mouse receptor captured on copper-coated plate
T3 construct: Bought; also called murine FcγRI
T3 sequence (looked up): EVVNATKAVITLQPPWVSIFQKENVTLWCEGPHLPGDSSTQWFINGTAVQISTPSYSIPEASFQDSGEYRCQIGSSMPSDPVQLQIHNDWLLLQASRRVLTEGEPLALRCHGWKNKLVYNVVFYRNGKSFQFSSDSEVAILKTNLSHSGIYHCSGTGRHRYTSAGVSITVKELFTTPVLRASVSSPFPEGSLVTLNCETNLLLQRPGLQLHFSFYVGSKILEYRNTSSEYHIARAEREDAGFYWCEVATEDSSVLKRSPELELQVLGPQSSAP
Protocol: (§2) Commercially-available recombinant polyhistidine tagged mouse FcγRI, FcγRII, FcγRIII, and FcγRIV (R&D Systems) were diluted to 1 μg/ml in PBS and 100 μl/well was captured onto copper-coated plates (Pierce) overnight at 4° C. Plates were washed three times with wash buffer (0.15M NaCl, 0.02% Tween 20). Non-specific binding was blocked using 200 μl/well SuperBlock (Pierce) for 15 minutes at room temperature. Plates were washed three times as above. […] Plates were washed three times as above to remove unbound mAb. CNTO 860 variants that bound to plated receptors were detected using 100 μl/well HRP-labeled goat F(ab′)₂ anti-human IgG F(ab′)₂ (Jackson ImmunoResearch) diluted 1:5,000 in PBS incubated at room temperature for 1 hour. Plates were washed five times using wash buffer as above, and developed using 100 μl/well TMB Stable Stop substrate (Fitzgerald Industries) stopped with 0.5M HCl. Absorbance was detected at 450 nm.
(§3) All binding assays were in an ELISA format, with recombinant soluble receptor captured on coated EIA plates.

[4] = biological target: T4, recombinant polyhistidine tagged mouse FcγRII (R&D Systems) (mouse, UniProt P08101 40-217, limits assumed); experiment: as above
T4 construct: Bought; also called FcRII
T4 sequence (looked up): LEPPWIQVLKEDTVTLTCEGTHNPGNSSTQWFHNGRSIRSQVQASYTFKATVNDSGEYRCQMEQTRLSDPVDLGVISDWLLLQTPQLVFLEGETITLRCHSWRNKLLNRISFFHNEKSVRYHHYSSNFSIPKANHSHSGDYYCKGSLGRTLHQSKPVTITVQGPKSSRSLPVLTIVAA
Protocol: as §2, §3

[5] = biological target: T5, recombinant polyhistidine tagged mouse FcγRIII (R&D Systems) (mouse, UniProt P08508 31-215); experiment: as above
T5 construct: Bought
T5 sequence (looked up): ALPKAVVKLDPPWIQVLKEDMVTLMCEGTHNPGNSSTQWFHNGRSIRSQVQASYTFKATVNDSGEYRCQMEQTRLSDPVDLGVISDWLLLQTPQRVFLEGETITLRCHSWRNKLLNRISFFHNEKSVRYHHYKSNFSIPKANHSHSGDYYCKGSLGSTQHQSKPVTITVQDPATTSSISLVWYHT
Protocol: as §2, §3

[6] = biological target: T6, recombinant polyhistidine tagged mouse FcγRIV (R&D Systems) (mouse, UniProt A0A0B4J1G0 21-203); experiment: as above
T6 construct: Bought
T6 sequence: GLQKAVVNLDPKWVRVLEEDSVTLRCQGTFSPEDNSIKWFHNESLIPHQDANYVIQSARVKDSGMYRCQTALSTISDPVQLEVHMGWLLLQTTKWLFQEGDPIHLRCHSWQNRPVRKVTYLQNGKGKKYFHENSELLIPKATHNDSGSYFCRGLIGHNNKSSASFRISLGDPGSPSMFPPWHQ
Protocol: as §2, §3

[7] = biological target: T7, recombinant human His-tagged FcγRIIa (R&D Systems #1330-CD-050) (human, UniProt P12318 36-218, limits assumed); experiment: AlphaScreen
T7 construct: Bought; also called CD32a; recombinant, soluble, human FcγRIIa
T7 sequence (looked up): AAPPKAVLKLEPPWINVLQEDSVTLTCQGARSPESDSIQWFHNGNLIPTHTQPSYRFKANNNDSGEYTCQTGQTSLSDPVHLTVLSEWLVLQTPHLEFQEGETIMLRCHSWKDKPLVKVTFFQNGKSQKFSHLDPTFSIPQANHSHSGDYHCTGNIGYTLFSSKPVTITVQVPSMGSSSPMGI
Protocol: (§4) FcγRIIa (CD32a) AlphaScreen—Nickel acceptor beads (Perkin Elmer #6760619C) were diluted 1:50 in assay buffer (PBS, pH 7.4, 4 mg/ml BSA, 0.01% Tween-20), and 27.5 μl were added to each well of a Nunc V-bottom polypropylene plate (VWR # 62409-108) (Powers G., Notebook 9006, pp. 169-175, 182-185). A 2.0 μg/ml solution of recombinant human His-tagged FcγRIIa (R&D Systems #1330-CD-050) was prepared in assay buffer and 27.5 μl added to each well of a separate Nunc V bottom polypropylene plate. Titrations of test Abs were prepared in the Nunc V bottom polypropylene plate starting at 30 μg/ml. A 2 μg/ml solution of biotinylated goat F(ab′)₂ anti-human IgG F(ab′)₂ (Jackson Immunoresearch #109-066-097) was prepared in assay buffer and 27.5 μl added to each well of another Nunc V bottom polypropylene plate. A 1:50 dilution of streptavidin donor beads (PerkinElmer # 6760002) was prepared in assay buffer and 27.5 μl added to each well of another Nunc V bottom polypropylene plate. A volume of 5 μl of each reagent was added to the corresponding quadrants of a low-volume, non-binding white 384-well plate (Corning # 3673) in the following order: acceptor beads, FcγRIIa, test Ab, biotinylated anti-human IgG F(ab′)₂, and streptavidin donor beads. The plates were incubated for 30 minutes with shaking and the O.D.s determined using an Envision plate reader.
(§5) FcγRIIb (CD32b) AlphaScreen—The assay was performed as described above for FcγRIIa except that FcγRIIa was replaced with FcγRIIb (R&D Systems #1875-CD-050).

[8] = biological target: T1, FcγRIIIa on NK cells of human PBMC; experiment: cell-based or functional assay; remark: listed apart in the source
[9] = biological target: T8, recombinant human His-tagged FcγRI (extracellular domain, R&D Systems #1257-FC-050) (human, UniProt P12314 16-292); experiment: ELISA
T8 construct: extracellular domain; Bought; also called CD64; recombinant, soluble, human FcγRI
Protocol: FcγRI (CD64) ELISA —50 μl of a 1 μg/ml solution of recombinant human His-tagged FcγRI (extracellular domain, R&D Systems #1257-FC-050) in ELISA buffer (PBS, pH 7.4, 4 mg/ml BSA, 0.01% Tween-20) was added to each well of HisGrab 96 well plates (Pierce #15142) (Powers G., Notebook 9006, pp. 166-168, 180-181). The plate was incubated with shaking for 3 hours. The plates were washed 3× with 300 μl of wash buffer (PBS, 0.01% Tween-20) on a plate washer. Serial dilutions of the CNTO860 antibody Fc-variant samples were made in ELISA buffer and 50 μl per well of each titration were added in duplicate to the FcγRI-coated plates. The plates were incubated with shaking for 1 hour. The plates were washed 3× with 300 μl of wash buffer on a plate washer. 50 μl of a 1:10,000 dilution of HRP-labeled goat F(ab′)₂ anti-human IgG F(ab′)₂ (Jackson Immunoresearch # 109-036-097) in ELISA buffer was added to each well. The plates were incubated with shaking for 30 minutes. The plates were washed 3× with 300 μl of wash buffer on the plate washer. 50 μl per well TMB substrate (RDI #RDI-TMBSU-1L) was added to each well and developed for 5 minutes. The reaction was stopped by adding 100 μl 0.2 N sulfuric acid. The plates were read at OD450 on an Envision plate reader.
as §1, with “minutes.” for “minutes. The plates were washed 3× with 300 μl of wash buffer on the plate washer. 50 μl per well TMB substrate (RDI #RDI-TMBSU-1L) was added to each well and developed for 3-5 minutes. The reaction was stopped by adding 100 μl 10.2 N sulfuric acid. The plates were read at OD450 on an Envision plate reader. Antibody concentration vs OD450 values were graphed for each CNTO 860 variant and the antibody concentration needed to achieve an OD450 reading of 0.14 established by interpolation within each data curve.”

[10] = biological target: T9, recombinant human FcγRIIb (R&D Systems #1875-CD-050) (human, UniProt P31994 46-217, limits assumed); experiment: AlphaScreen
T9 construct: Bought; also called CD32b; recombinant, soluble, human FcγRIIb
T9 sequence (looked up): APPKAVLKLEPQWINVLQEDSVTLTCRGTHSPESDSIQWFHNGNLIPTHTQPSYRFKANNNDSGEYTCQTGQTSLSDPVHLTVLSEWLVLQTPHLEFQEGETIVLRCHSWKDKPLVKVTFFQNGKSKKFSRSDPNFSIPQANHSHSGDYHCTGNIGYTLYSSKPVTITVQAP
Protocol: as §4, §5

T1 sequence (P08637 17-254): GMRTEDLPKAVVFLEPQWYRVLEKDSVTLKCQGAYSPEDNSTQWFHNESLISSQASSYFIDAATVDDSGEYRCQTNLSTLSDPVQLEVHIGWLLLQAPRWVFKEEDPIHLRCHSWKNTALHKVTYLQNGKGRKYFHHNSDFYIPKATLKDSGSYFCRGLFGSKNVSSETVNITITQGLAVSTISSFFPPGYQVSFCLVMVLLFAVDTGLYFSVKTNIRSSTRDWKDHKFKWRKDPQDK
T2 sequence (P08637 17-208): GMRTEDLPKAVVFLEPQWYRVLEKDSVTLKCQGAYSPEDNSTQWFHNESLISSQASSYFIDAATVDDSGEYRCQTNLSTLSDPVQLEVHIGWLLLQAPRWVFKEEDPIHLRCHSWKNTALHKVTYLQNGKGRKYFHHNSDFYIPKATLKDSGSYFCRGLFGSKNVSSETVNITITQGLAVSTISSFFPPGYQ
T8 sequence (P12314 16-292): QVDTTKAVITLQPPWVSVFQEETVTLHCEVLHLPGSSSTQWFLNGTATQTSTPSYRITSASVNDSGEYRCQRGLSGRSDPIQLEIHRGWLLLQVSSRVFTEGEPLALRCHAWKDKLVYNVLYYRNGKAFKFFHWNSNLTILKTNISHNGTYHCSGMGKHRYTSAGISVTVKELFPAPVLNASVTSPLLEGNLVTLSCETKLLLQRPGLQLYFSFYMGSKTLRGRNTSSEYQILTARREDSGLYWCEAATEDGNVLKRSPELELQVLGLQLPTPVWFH

B1: CHO-CNTO 860 I332E/V264I (antibody, human IgG1, kappa)
heavy: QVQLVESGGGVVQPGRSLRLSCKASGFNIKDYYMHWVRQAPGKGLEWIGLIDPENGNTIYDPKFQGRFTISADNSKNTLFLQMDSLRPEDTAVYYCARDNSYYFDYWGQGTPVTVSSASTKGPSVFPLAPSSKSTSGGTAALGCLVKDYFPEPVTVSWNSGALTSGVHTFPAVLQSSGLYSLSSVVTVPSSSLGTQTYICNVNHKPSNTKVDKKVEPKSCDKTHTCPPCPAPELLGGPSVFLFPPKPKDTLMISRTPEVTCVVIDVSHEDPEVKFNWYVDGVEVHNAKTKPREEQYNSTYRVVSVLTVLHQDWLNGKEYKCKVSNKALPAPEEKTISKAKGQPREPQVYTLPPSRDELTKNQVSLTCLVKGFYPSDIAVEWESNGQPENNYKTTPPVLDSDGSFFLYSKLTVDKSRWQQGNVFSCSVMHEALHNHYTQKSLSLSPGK
light: DIQMTQSPSSLSASVGDRVTITCKASQDIRKYLNWYQQKPGKAPKLLIYYATSLADGVPSRFSGSGSGTDYTFTISSLQPEDIATYYCLQHGESPYTFGQGTKLEITRTVAAPSVFIFPPSDEQLKSGTASVVCLLNNFYPREAKVQWKVDNALQSGNSQESVTEQDSKDSTYSLSSTLTLSKADYEKHKVYACEVTHQGLSSPVTKSFNRGEC
modifications: Heavy chain N297 carries the CHO-type N-linked glycan (about 95% fucosylated); not carried by the letters.
notes: IgG1/kappa Fc variant; transiently expressed in CHO cells (p4187/p4146); EU numbering; also called V264I/I332E (CHO cell-derived); copies: 2 + 2
EC25 (ng/ml), ADCC of HCT116 cells by human PBMC [1]: 1 ng/mL
concentration (ng/ml) required for an O.D. value of 0.14 [2]: 900 ng/mL
ECOD1 (concentration required for an O.D. value of 1.0) [3]: 25800 ng/mL
ECOD1 (concentration required for an O.D. value of 1.0) [4]: 1700 ng/mL
ECOD1 (concentration required for an O.D. value of 1.0) [5]: 2000 ng/mL
ECOD1 (concentration required for an O.D. value of 1.0) [6]: 8 ng/mL

B2: CNTO 860 A330I/I332E (antibody, human IgG1, kappa)
heavy: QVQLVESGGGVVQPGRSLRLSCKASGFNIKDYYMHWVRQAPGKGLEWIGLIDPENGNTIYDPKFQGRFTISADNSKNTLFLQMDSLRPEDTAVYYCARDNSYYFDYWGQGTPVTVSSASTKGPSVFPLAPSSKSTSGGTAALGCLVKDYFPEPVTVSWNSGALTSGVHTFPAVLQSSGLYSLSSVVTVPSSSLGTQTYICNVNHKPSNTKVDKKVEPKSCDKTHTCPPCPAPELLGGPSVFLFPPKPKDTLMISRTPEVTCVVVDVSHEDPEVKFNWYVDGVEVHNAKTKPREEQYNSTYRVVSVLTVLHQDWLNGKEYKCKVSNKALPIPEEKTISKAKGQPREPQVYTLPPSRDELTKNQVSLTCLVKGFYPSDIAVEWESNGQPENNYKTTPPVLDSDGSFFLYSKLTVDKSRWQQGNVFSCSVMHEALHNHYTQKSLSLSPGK
light: B1 light
modifications: N-linked glycan at Asn297 of the heavy chain (fucose content depends on host cell, CHO or YB2/0); not carried by the letters
notes: also called A330I/I332E double mutant; A330I/I332E variant; copies: 2 + 2
fold higher concentration than WT to give an OD signal of 200,000 [7]: ~20 fold
fold activity in the ADCC assays [8]: ~10 fold

B3: CNTO 860 I332E (antibody)
heavy: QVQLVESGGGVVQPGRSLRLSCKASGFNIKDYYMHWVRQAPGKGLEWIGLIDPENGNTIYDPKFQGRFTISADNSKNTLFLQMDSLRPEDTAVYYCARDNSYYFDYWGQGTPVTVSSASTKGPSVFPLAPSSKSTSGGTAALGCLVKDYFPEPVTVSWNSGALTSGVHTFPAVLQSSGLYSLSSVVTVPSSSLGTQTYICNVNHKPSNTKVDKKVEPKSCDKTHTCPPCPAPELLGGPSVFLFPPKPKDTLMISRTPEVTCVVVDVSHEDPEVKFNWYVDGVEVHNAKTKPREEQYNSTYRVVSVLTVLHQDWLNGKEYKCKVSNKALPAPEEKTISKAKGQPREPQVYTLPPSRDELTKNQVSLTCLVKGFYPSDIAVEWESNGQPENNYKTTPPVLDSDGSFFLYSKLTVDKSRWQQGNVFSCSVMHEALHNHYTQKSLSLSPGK
light: B1 light
modifications: N-linked glycan at heavy chain Asn297 (host cell not specified in these sentences); not carried by the letters
notes: also called I332E variant; I332E single mutant; copies: 2 + 2
fold change in binding against WT (enhanced) [9]: 2 fold

B4: CNTO 860 A330I (antibody)
heavy: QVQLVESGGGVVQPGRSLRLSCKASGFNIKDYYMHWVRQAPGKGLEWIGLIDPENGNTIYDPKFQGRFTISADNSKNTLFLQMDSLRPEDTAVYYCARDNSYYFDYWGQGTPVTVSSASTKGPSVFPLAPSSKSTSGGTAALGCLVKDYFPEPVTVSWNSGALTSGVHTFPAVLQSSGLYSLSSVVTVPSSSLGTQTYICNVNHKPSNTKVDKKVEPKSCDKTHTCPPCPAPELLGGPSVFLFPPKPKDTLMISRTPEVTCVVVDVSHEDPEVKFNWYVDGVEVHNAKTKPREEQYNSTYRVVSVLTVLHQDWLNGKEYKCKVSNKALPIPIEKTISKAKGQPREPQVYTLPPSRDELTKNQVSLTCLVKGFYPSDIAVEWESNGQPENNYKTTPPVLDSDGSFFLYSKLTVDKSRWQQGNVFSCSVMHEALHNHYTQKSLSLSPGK
light: B1 light
modifications: N-linked glycan at Asn297 of the heavy chain (fucose content depends on host cell, CHO or YB2/0); not carried by the letters
notes: also called A330I variant; A330I single mutant; copies: 2 + 2
fold change in binding against WT (reduced) [10]: 500 fold

B5: CNTO 860 S239D/I332E (antibody, human IgG1, kappa)
heavy: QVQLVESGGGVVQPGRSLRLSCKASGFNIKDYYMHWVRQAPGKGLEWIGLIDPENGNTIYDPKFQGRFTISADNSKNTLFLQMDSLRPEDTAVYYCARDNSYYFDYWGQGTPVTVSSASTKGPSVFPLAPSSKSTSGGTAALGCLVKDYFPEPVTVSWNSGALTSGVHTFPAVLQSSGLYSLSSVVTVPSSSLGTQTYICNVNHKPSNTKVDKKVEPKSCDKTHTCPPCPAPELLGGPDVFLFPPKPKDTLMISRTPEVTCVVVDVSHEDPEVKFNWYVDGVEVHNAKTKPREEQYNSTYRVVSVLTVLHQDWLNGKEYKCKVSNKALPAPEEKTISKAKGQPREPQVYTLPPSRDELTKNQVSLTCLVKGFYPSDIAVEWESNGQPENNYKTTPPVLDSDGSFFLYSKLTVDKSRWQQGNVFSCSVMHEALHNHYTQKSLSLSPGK
light: B1 light
modifications: N-linked glycan at Asn297 of the heavy chain (fucose content depends on host cell, CHO or YB2/0); not carried by the letters
notes: also called S239D/I332E double mutant; copies: 2 + 2
fold change in binding against WT (enhanced) [10]: ~6 fold

Source: patent US20080311034A1 (published 2008)
